Measured values published in patent US20250258178A1 (SHIONOGI, published 2025).
Values belong to the binder of their own block, whether it stands above or below them.

How the values were obtained:
[1] = target: T1, human histidine-rich glycoprotein (HRG), purified from human plasma (human, UniProt P04196 19-525); experiment: sandwich ELISA, HRG captured by solid phase 67-8A-5F
T1 construct: also called human purified HRG; human purified HRG protein
T1 sequence: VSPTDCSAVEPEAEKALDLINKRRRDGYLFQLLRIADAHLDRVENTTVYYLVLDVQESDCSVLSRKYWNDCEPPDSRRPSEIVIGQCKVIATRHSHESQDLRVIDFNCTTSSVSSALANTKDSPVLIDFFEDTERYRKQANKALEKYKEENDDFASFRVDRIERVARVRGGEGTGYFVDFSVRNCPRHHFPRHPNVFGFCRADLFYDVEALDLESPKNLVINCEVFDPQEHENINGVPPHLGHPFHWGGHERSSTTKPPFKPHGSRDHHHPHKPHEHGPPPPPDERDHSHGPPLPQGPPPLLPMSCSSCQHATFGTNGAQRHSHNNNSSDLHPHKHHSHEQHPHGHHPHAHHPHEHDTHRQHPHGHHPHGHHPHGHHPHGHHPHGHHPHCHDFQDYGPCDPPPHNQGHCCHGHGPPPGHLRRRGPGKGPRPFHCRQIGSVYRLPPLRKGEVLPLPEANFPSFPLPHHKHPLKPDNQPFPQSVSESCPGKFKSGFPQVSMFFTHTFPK
Method: (§1) The capture antibody solution was dispensed at 25 μL per well into 384-well Maxisorp plates (NUNC), and the plates were incubated at room temperature for 3 hours. The plates were washed twice with 120 μL of washing solution per well (0.05% Tween 20-containing PBS). A blocking solution (1% BSA-containing PBS) was dispensed at 30 μL per well, and the plates were incubated at room temperature for 3 hours. The blocking solution was removed followed by dispensing the standard substance for evaluation at 20 μL per well (n=2), and the plates were incubated at room temperature for 3 hours. After washing the plates four times with the washing solution as described above, the solution of each detector antibody was dispensed at 10 μL per well, followed by dispensing a horseradish peroxidase-streptavidin solution (0.05 μg/mL) at 10 μL per well, and the plates were incubated at room temperature for 1 hour. After washing the plates four times with the washing solution as described above, a chromogenic substrate solution (TMB (3,3′,5,5′-tetramethylbenzidine)) was dispensed at 20 μL per well followed by incubating the plates at room temperature for 10 minutes, then a reaction stop solution 0.5 M H₂SO₄ was added at 20 μL/well, and the absorbance at 450 nm was measured.
(§2) The results regarding the evaluation of combinations chosen from 21 types of anti-HRG monoclonal antibodies are shown in Table 1. In Table 1, the absorbance at a wavelength of 450 nm of each combination was determined as follows: less than 1.0 OD: −, 1.0 OD or more and less than 2.0 OD: +, 2.0 OD or more and less than 3.0 OD: ++, and 3.0 OD or more: +++. The combinations of antibodies which could construct a sandwich ELISA system having enough level of absorbance change were 86 sets evaluated as ++ or +++ in Table 1.

[2] = target: T1, human histidine-rich glycoprotein …; experiment: sandwich ELISA, HRG captured by solid phase 69-1A
Method: as §1, §2

[3] = target: T1, human histidine-rich glycoprotein …; experiment: sandwich ELISA, HRG captured by solid phase 50-6C-2A
Method: as §1, §2

[4] = target: T1, human histidine-rich glycoprotein …; experiment: sandwich ELISA, HRG captured by solid phase 31-1H
Method: as §1, §2

[5] = target: T1, human histidine-rich glycoprotein …; experiment: sandwich ELISA, HRG captured by solid phase 19-1C
Method: as §1, §2

[6] = target: T1, human histidine-rich glycoprotein …; experiment: sandwich ELISA, HRG captured by solid phase 32-4C
Method: as §1, §2

[7] = target: T1, human histidine-rich glycoprotein …; experiment: sandwich ELISA, HRG captured by solid phase 6-12A-10B-9G
Method: as §1, §2

[8] = target: T1, human histidine-rich glycoprotein …; experiment: sandwich ELISA, HRG captured by solid phase 13-2G
Method: as §1, §2

[9] = target: T1, human histidine-rich glycoprotein …; experiment: sandwich ELISA, HRG captured by solid phase 94-7A-3C-3D
Method: as §1, §2

[10] = target: T1, human histidine-rich glycoprotein …; experiment: sandwich ELISA, HRG captured by solid phase 65-3A
Method: as §1, §2

[11] = target: T1, human histidine-rich glycoprotein …; experiment: sandwich ELISA, HRG captured by solid phase 81-2C
Method: as §1, §2

[12] = target: T1, human histidine-rich glycoprotein …; experiment: sandwich ELISA, HRG captured by solid phase 93-4C
Method: as §1, §2

[13] = target: T1, human histidine-rich glycoprotein …; experiment: sandwich ELISA, HRG captured by solid phase 35-3G-10C
Method: as §1, §2

[14] = target: T1, human histidine-rich glycoprotein …; experiment: sandwich ELISA, HRG captured by solid phase 88-2E
Method: as §1, §2

[15] = target: T1, human histidine-rich glycoprotein …; experiment: sandwich ELISA, HRG captured by solid phase 3-4E
Method: as §1, §2

[16] = target: T1, human histidine-rich glycoprotein …; experiment: sandwich ELISA, HRG captured by solid phase 42-10D
Method: as §1, §2

[17] = target: T1, human histidine-rich glycoprotein …; experiment: sandwich ELISA, HRG captured by solid phase 40-10G
Method: as §1, §2

[18] = target: T1, human histidine-rich glycoprotein …; experiment: sandwich ELISA, HRG captured by solid phase 58-5C
Method: as §1, §2

- absorbance at 450 nm (OD450) [1]: ≥ 3 od
- absorbance at 450 nm [2]: < 1 OD
- absorbance at 450 nm (OD450) [3]: ≥ 3 od
- absorbance at 450 nm [4]: < 1 OD
- absorbance at 450 nm [5]: < 1 OD
- absorbance at 450 nm [6]: < 1 OD
- absorbance at 450 nm (OD450) [7]: ≥ 3 od
- absorbance at 450 nm (OD450) [8]: 2 to 3 od
- absorbance at 450 nm [9]: < 1 OD
- absorbance at 450 nm (OD450) [10]: ≥ 3 od
- absorbance at 450 nm [11]: < 1 OD
- absorbance at 450 nm (OD450) [12]: 1 to 2 od
- absorbance at 450 nm [13]: < 1 OD
- absorbance at 450 nm [14]: < 1 OD
- absorbance at 450 nm [15]: < 1 OD
B1: anti-HRG monoclonal antibody 75-2D (antibody, V domains shown)
VH: QVQLQQSGAELMKPGASVKISCKATGYTFSSYWIEWVKQRPGHGLEWIGEILPGSGRTNYNEKFKGKATFTADTSSNTAYMQLSSLTSEDSAVYYCARYSYFYYFDYWGQGTTLTVSS
VL: DNVLTQSPAIMSASLGERVTMTCTASSSVSSSYLHWYQQKPGSSPKLWIYSTSNLASGVPARFSGSGSGTSYSLTISSMEAEDAATYYCHQYHRSPWTFGGGTKLEIK
notes: Mouse hybridoma monoclonal; also called clone No. 75-2D

- absorbance at 450 nm [1]: < 1 OD
- absorbance at 450 nm [16]: < 1 OD
- absorbance at 450 nm [2]: < 1 OD
- absorbance at 450 nm [3]: < 1 OD
- absorbance at 450 nm [4]: < 1 OD
- absorbance at 450 nm [5]: < 1 OD
- absorbance at 450 nm [6]: < 1 OD
- absorbance at 450 nm (OD450) [7]: 2 to 3 od
- absorbance at 450 nm [8]: < 1 OD
- absorbance at 450 nm [9]: < 1 OD
- absorbance at 450 nm [10]: < 1 OD
- absorbance at 450 nm (OD450) [17]: 1 to 2 od
- absorbance at 450 nm [11]: < 1 OD
- absorbance at 450 nm (OD450) [12]: 1 to 2 od
- absorbance at 450 nm [13]: < 1 OD
- absorbance at 450 nm [14]: < 1 OD
- absorbance at 450 nm (OD450) [18]: 1 to 2 od
- absorbance at 450 nm (OD450) [15]: ≥ 3 od
B2: anti-HRG monoclonal antibody 69-1A (antibody, V domains shown)
VH: EVKLEESGGGLVQPGGSMKLSCAASGFTFSDAWMDWVRQSPEKGLEWVAEIRSKANNHGTYYAESVKGRFTISRDDSKSSVYLRMNSLSAEDTGIYYCTRPFAYWGQGTLVTVSA
VL: DVVVTQTPLSLPVSLGDQASISCRSSQSLVHIDGNTYFHWYVQKPGQSPKLLIYKVSNRFSGVPDRFSGSGSGTDFTLKISRVEAEDLGVYFCSQSTHVPLTFGAGTKLELK
notes: Mouse hybridoma monoclonal; also called clone No. 69-1A
